Data reported in US5674842A, “Growth inhibitory peptide” (Health Research, Incorporated, priority 1994, dated 1997).

Legend:
[1] = Retention of inhibitory activity on storage; assay type: physicochemical; details: transformed human AFP preparation
[2] = system: estrogen-stimulated growth of mouse uterus; details: full-length transformed AFP molecule, see references cited; cited from earlier work

B1: full-length transformed AFP molecule: full-length alpha-fetoprotein transformed by incubation with estradiol to an inhibitor of estrogen-stimulated growth (protein, UniProt P02771 1-609, looked up)
chain: MKWVESIFLIFLLNFTESRTLHRNEYGIASILDSYQCTAEISLADLATIFFAQFVQEATYKEVSKMVKDALTAIEKPTGDEQSSGCLENQLPAFLEELCHEKEILEKYGHSDCCSQSEEGRHNCFLAHKKPTPASIPLFQVPEPVTSCEAYEEDRETFMNKFIYEIARRHPFLYAPTILLWAARYDKIIPSCCKAENAVECFQTKAATVTKELRESSLLNQHACAVMKNFGTRTFQAITVTKLSQKFTKVNFTEIQKLVLDVAHVHEHCCRGDVLDCLQDGEKIMSYICSQQDTLSNKITECCKLTTLERGQCIIHAENDEKPEGLSPNLNRFLGDRDFNQFSSGEKNIFLASFVHEYSRRHPQLAVSVILRVAKGYQELLEKCFQTENPLECQDKGEEELQKYIQESQALAKRSCGLFQKLGEYYLQNAFLVAYTKKAPQLTSSELMAITRKMAATAATCCQLSEDKLLACGEGAADIIIGHLCIRHEMTPVNPGVGQCCTSSYANRRPCFSSLVVDETYVPPAFSDDKFIFHKDLCQAQGVALQTMKQEFLINLVKQKPQITEEQLEAVIADFSGLLEKCCQGQEQEVCFAEEGQKLISKTRAALGV
modifications: full-length estradiol-transformed
time activity is retained [1]: one
inhibition of estrogen-stimulated growth [2]: 20-40%
